T1: recombinant biotinylated rat PAR2 extracellular residues 1-75, N-terminal AviTag, C-terminal Flag and poly … (rat, UniProt Q63645 26-75, not fully specified; biotin on the AviTag (enzymatic biotinylation))
T1 construct: range 1-75; not shown: N-terminal AviTag (Avidity LLC); C-terminal Flag and poly Histidine tags
T1 chain (looked up): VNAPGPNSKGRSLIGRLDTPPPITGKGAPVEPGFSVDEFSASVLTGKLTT


Experiments:
[1] = biological target: T2, recombinant biotinylated human PAR2 extracellular domain (residues 1-75), N-terminal AviTag, C-terminal Flag … (human, UniProt P55085 26-75, biotin on the AviTag (enzymatic biotinylation)); assay: HTRF competition with Par0067 IgG, pH 7.4, scFv
T2 construct: also called Bio-human-PAR2 ECD; human PAR2 ECD; not shown: N-terminal AviTag (Avidity LLC); C-terminal Flag and poly Histidine tags
Protocol: (§1) 5 μl/well of the appropriate pH 4.44 nM Par0067 IgG solution was added to all wells of the relevant assay plate (pH 7.4 and pH 6.0).
(§2) Test scFv Preparation/Addition: [0172] a) For parallel single point HTS of crude un-purified bacterial lysate scFv samples at both pH 7.4 and pH 6.0 samples were first pre-diluted to 40% of their neat concentration using either pH 7.4 or pH 6.0 assay buffer as appropriate. Subsequently 5 μl of 40% pre-diluted sample was then transferred into the appropriate assay (pH 7.4 or pH 6.0) in order to give a final assay sample concentration of 10.0% (in the 20 μl final assay volume). The parent Par0067 scFv was included in all HTS experiments as a control as were specific pH dependent antibodies as those became available (for benchmarking). […] Duplicate 11 point 1:3 serial dilutions then were prepared on 384 well polypropylene Greiner plates in each of the two assay buffers (pH 7.4 & 6.0). 5 μl per well of each serial dilution was transferred from the relevant pH scFv dilution plate to the corresponding assay plate (pH 7.4 and pH 6.0). 5 μl of the appropriate pH assay buffer was added to the total and non-specific wells. The parent Par0067 purified scFv was included in all multipoint dose response IC₅₀ experiments as a control as were specific pH dependent purified scFv as those became available (for benchmarking).
(§3) For multipoint dose response curves % Specific Binding values were plotted versus test purified antibody concentration (scFv or IgG). IC₅₀ values were determined via a sigmoidal dose response inhibition variable slope curve fit (4 parameter logistic equation) using Graphpad Prism Software.

[2] = biological target: T2, recombinant biotinylated human PAR2 …; assay: HTRF competition with Par0067 IgG, pH 6.0, scFv
Protocol: as §1, §2, §3

[3] = biological target: T2, recombinant biotinylated human PAR2 …; assay: HTRF competition with Par0067 IgG, scFv
Protocol: as §1, §2, §3

[4] = biological target: T1, recombinant biotinylated rat PAR2 …; assay: Biacore SPR 25 C, pH 7.4
Protocol: (§4) The experiments were carried out using recombinant human, rat and cynomolgus PAR2 with an N-terminal Avi tag and C-terminal Flag-His tags.
(§5) Streptavidin was covalently immobilised to a C1 chip surface using standard amine coupling techniques at a concentration of 4 μg/ml in 10 mM Sodium acetate pH 4.5. A final streptavidin surface of approximately 30-100 RUs was achieved. Recombinant biotinylated PAR2 species (produced in-house) were titrated onto the streptavidin chip surface at 4 μg/ml in HBS-EP+ buffer to enable Fab binding at saturation (Rₘₐₓ). This low level of analyte binding ensured minimal mass transport effects.
(§6) The anti-PAR2 Fabs were serially diluted (0.39 nM-25 nM) in HBS-EP+ buffer pH 7.4 or MES-BS-EP+ pH 6.0 buffer or in MES-BS-EP+ pH 5.6 buffer and flowed over the chip at 50 μl/min, with 3 minutes association and up to 30 minutes dissociation. Multiple buffer-only injections were made under the same conditions to allow for double reference subtraction of the final sensorgram sets, which were analysed using the BiaEval software (version 2.0.1). The chip surface was fully regenerated with pulses of 4 M MgCl₂.

[5] = biological target: T2, recombinant biotinylated human PAR2 …; assay: Biacore SPR 25 C, pH 7.4
Protocol: as §4, §5, §6

[6] = biological target: T1, recombinant biotinylated rat PAR2 …; assay: Biacore SPR 25 C, pH 6.0
Protocol: as §4, §5, §6

[7] = biological target: T2, recombinant biotinylated human PAR2 …; assay: Biacore SPR 25 C, pH 6.0
Protocol: as §4, §5, §6

T2 sequence (P55085 26-75): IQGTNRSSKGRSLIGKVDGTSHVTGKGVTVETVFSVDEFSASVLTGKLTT

Row | IC50 [1] [nM] | IC50 [2] [nM] | Fold IC50 (pH 6.0 v pH 7.4) [3] [fold] | Fold IC50 pH 7.4 (Variant v Par0067) [3] [fold] | further results | Binder
1 | 147 | 496 | 3.4 | 44.5 | – | PaB670101 scFv (scFv, V domains shown, purified scFv; also called ZZ1ODO-H01) VH: EVQLLESGGGLVQPGGSLRLSCAASGFTFSSYAMNWVRQAPGKGLEWVSTISYSGSLISYADSVKGRFTISRDNSKNTLYLQMNSLRAEDTAVYYCARIHHHPHDHWGQGTLVTVSS VL: SIELTQPPSVSVSPGQTASITCSGDNLGKKYVQWYQQKPGQSPVLVIYDDSNRPSGIPERFSGSNSGNTATLTISGTQAMDEADYYCQTWDGNPTTGETNVFGGGTKLTVL
2 | 3.3 | 3.6 | 1.1 | 1 | – | Par0067 scFv (scFv, V domains shown, purified scFv, parent clone; also called ZZ15D2-D02) VH: EVQLLESGGGLVQPGGSLRLSCAASGFTFSSYAMNWVRQAPGKGLEWVSTISYSGSLISYADSVKGRFTISRDNSKNTLYLQMNSLRAEDTAVYYCARINNDPMDVWGQGTLVTVSS VL: SIELTQPPSVSVSPGQTASITCSGDNLGKKYVQWYQQKPGQSPVLVIYDDSNRPSGIPERFSGSNSGNTATLTISGTQAMDEADYYCQTWDGNPTTGETNVFGGGTKLTVL
3 | 42.7 | 464 | 10.9 | 12.9 | – | PaB670107 scFv (scFv, V domains shown, purified scFv; also called ZZ1RD3-D09) VH: EVQLLESGGGLVQPGGSLRLSCAASGFTFSSYAMNWVRQAPGKGLEWVSTISYSGSLISYADSVKGRFTISRDNSKNTLYLQMNSLRAEDTAVYYCARINNDPMDVWGQGTLVTVSS VL: SIELTQPPSVSVSPGQTASITCSGDNLGKKYVQWYQQKPGQSPVLVIYDDSNRPSGIPERFSGSNSGNTATLTISGTQAMDEADYYCHHWHHNPTHHETNVFGGGTKLTVL
4 | 27.9 | 204 | 7.3 | 8.5 | – | PaB670103 scFv (scFv, V domains shown, purified scFv; also called ZZ1RCX-C09) VH: EVQLLESGGGLVQPGGSLRLSCAASGFTFSSYAMNWVRQAPGKGLEWVSTISYSGSLISYADSVKGRFTISRDNSKNTLYLQMNSLRAEDTAVYYCARINNDPMDVWGQGTLVTVSS VL: SIELTQPPSVSVSPGQTASITCSGDNLGKKYVQWYQQKPGQSPVLVIYDDSNRPSGIPERFSGSNSGNTATLTISGTQAMDEADYYCHTWDGHHTTGETNHFGGGTKLTVL
5 | – | – | – | – | Kd [4]: 2.61 nM; koff [4]: 0.0146 s⁻¹; kon [4]: 5.62e+06 M⁻¹ s⁻¹; Kd [5]: 0.247 nM; koff [5]: 0.00137 s⁻¹; kon [5]: 5.54e+06 M⁻¹ s⁻¹; Kd [6]: 34 nM; koff [6]: 0.281 s⁻¹; kon [6]: 8.26e+06 M⁻¹ s⁻¹; Kd [7]: 6.05 nM; koff [7]: 0.021 s⁻¹; kon [7]: 3.48e+06 M⁻¹ s⁻¹ | PaB670120 Fab (Fab, V domains shown, Fab; also called ZZ1RUC-C11) VH: EVQLLESGGGLVQPGGSLRLSCAASGFTFSSYAMNWVRQAPGKGLEWVSTISYHGHHISYADSHHHRFTISRDNSKNTLYLQMNSLRAEDTAVYYCARINHDPMDVWGQGTLVTVSS VL: SIELTQPPSVSVSPGQTASITCSGDNLGKKYVQWYQQKPGQSPVLVIYDDSNRPSGIPERFSGSNSGNTATLTISGTQAMDEADYYCQTWDGNPTTGETNVFGGGTKLTVL
6 | 29.1 | 149 | 5.1 | 8.8 | – | PaB670108 scFv (scFv, V domains shown, purified scFv; also called ZZ1RD3-H03) VH: EVQLLESGGGLVQPGGSLRLSCAASGFTFSSYAMNWVRQAPGKGLEWVSTISYSGSLISYADSVKGRFTISRDNSKNTLYLQMNSLRAEDTAVYYCARINNDPMDVWGQGTLVTVSS VL: SIELTQPPSVSVSPGQTASITCSGDNLGKKYVQWYQQKPGQSPVLVIYDDSNRPSGIPERFSGSNSGNTATLTISGTQAMDEADYYCQHWHGHHHTGETNVFGGGTKLTVL
7 | 313 | 1190 | 3.8 | 94.8 | – | PaB670106 scFv (scFv, V domains shown, purified scFv; also called ZZ1RD0-G02) VH: EVQLLESGGGLVQPGGSLRLSCAASGFTFSSYAMNWVRQAPGKGLEWVSTISYSGSLISYADSVKGRFTISRDNSKNTLYLQMNSLRAEDTAVYYCARINNDPMDVWGQGTLVTVSS VL: SIELTQPPSVSVSPGQTASITCSGDNLGKKYVQWYQQKPGQSPVLVIYDDSNRPSGIPERFSGSNSGNTATLTISGTQAMDEADYYCHTWDHNPHHHHTNHFGGGTKLTVL
8 | – | – | – | – | Kd [4]: 0.184 nM; koff [4]: 0.000558 s⁻¹; kon [4]: 3.04e+06 M⁻¹ s⁻¹; Kd [5]: 0.0325 nM; koff [5]: 0.000111 s⁻¹; kon [5]: 3.52e+06 M⁻¹ s⁻¹; Kd [6]: 10.2 nM; koff [6]: 0.00542 s⁻¹; kon [6]: 531000 M⁻¹ s⁻¹; Kd [7]: 1.8 nM; koff [7]: 0.000607 s⁻¹; kon [7]: 336000 M⁻¹ s⁻¹ | PaB670103 Fab (Fab, V domains shown, Fab; also called ZZ1RCX-C09) VH: EVQLLESGGGLVQPGGSLRLSCAASGFTFSSYAMNWVRQAPGKGLEWVSTISYSGSLISYADSVKGRFTISRDNSKNTLYLQMNSLRAEDTAVYYCARINNDPMDVWGQGTLVTVSS VL: SIELTQPPSVSVSPGQTASITCSGDNLGKKYVQWYQQKPGQSPVLVIYDDSNRPSGIPERFSGSNSGNTATLTISGTQAMDEADYYCHTWDGHHTTGETNHFGGGTKLTVL
9 | 21.7 | 202 | 9.3 | 6.6 | – | PaB670104 scFv (scFv, V domains shown, purified scFv) VH: EVQLLESGGGLVQPGGSLRLSCAASGFTFSSYAMNWVRQAPGKGLEWVSTISYSGSLISYADSVKGRFTISRDNSKNTLYLQMNSLRAEDTAVYYCARINNDPMDVWGQGTLVTVSS VL: SIELTQPPSVSVSPGQTASITCSGDNLGKKYVQWYQQKPGQSPVLVIYDDSNRPSGIPERFSGSNSGNTATLTISGTQAMDEADYYCQHWDGHHHTGETNVFGGGTKLTVL
10 | 5.3 | 13.7 | 2.6 | 1.6 | – | PaB670102 scFv (scFv, V domains shown, purified scFv; also called ZZ1PXS-F08) VH: EVQLLESGGGLVQPGGSLRLSCAASGFTFSSYAMNWVRQAPGKGLEWVSTISYSGSLISYADSVKGRFTISRDNSKNTLYLQMNSLRAEDTAVYYCARINHDPMDHWGQGTLVTVSS VL: SIELTQPPSVSVSPGQTASITCSGDNLGKKYVQWYQQKPGQSPVLVIYDDSNRPSGIPERFSGSNSGNTATLTISGTQAMDEADYYCQTWDGNPTTGETNVFGGGTKLTVL
11 | 74.4 | 496 | 6.7 | 22.5 | – | PaB670105 scFv (scFv, V domains shown, purified scFv; also called ZZ1RD0-D01) VH: EVQLLESGGGLVQPGGSLRLSCAASGFTFSSYAMNWVRQAPGKGLEWVSTISYSGSLISYADSVKGRFTISRDNSKNTLYLQMNSLRAEDTAVYYCARINNDPMDVWGQGTLVTVSS VL: SIELTQPPSVSVSPGQTASITCSGDNLGKKYVQWYQQKPGQSPVLVIYDDSNRPSGIPERFSGSNSGNTATLTISGTQAMDEADYYCQHWHGNPHTGEHNHFGGGTKLTVL

From patent publication US20180305450A1 (AstraZeneca / MedImmune, published 2018)
